Test results as given in patent publication US20260258155A1 (TRIVENI BIO, published 2026).

How the values were obtained:
[1] = biological target: T1, human KLK7 (hKLK7), active form (human, UniProt P49862 30-253); assay: cell-based or functional assay
[2] = biological target: T2, mouse KLK7 (mKLK7) (mouse, UniProt Q91VE3 26-249); assay: cell-based or functional assay
[3] = biological target: T1, human KLK7 (hKLK7), active form; assay: Biacore SPR, antibody captured on Protein A chip, single-cycle kinetics, 25 C
Description: (§1) All screening assays were performed at 25 C. The running buffer used was 20 mM HEPES, 300 mM NaCl, 0.01% Tween-20, pH 7.5. Antibodies (1 ug/mL) were captured on Fc2-4 of a Series S ProteinA Sensor Chip (Cytiva) flowing at 10 ul/mL for 30 s. Kinetics measurements were made in single-cycle kinetics mode with a series of 4-5 concentrations with top concentration of 25-100 nM and serial dilution 4-fold. Contact time was typically 300 s and dissociation time ranged from 1800-3600 s. Flow rate of 30 ul/mL was typically used. The sensor chip was regenerated with 10 mM glycine, pH 1.5 with a contact time of 30 s flowing at 50 ul/mL.

[4] = biological target: T2, mouse KLK7 (mKLK7); assay: as above
Description: as §1

T1 sequence (P49862 30-253): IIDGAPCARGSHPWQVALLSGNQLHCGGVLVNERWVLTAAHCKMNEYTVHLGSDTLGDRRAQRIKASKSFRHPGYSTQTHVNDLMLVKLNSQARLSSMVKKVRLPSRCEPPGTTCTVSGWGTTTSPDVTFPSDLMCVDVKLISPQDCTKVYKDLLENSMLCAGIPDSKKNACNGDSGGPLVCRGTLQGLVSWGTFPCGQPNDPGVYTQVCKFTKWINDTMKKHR
T2 sequence (Q91VE3 26-249 limits assumed): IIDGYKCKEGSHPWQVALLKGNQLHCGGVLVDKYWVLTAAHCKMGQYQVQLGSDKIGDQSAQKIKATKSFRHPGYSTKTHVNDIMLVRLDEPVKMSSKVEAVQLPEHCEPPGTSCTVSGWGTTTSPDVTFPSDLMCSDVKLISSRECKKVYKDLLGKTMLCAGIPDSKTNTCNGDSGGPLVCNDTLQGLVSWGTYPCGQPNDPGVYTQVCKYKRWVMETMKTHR

B1: KLK7-L1-Ab8 (antibody, V domains shown)
VH: QVQLVQSGAEVKKPGASVKVSCKASGYTFTSEGIHWVRQAPGQGLEWMGSISASSGDTNYAQKLQGRVTMTTDTSTSTAYMELRSLRSDDTAVYYCARSAGYGARHWYFDLWGQGTMVTVSS
VL: DIQMTQSPSSLSASVGDRVTITCRASQSISSYLNWYQQKPGKAPKLLIYGASSLQSGVPSRFSGSGSGTDFTLTISSLQPEDFATYYCDQWYSTPPITFGGGTKVEIK
With B1 the “hKLK7 IC50 (protease inhibition)” value [1] was 0.767 nM, the “hKLK7 IC90 (protease inhibition)” value [1] was 3.95 nM and the “mKLK7 IC50 (protease inhibition)” value [2] was 1.1 nM. The “mKLK7 IC90 (protease inhibition)” value [2] was 5.3 nM, the Kd [3] was 0.01 nM and the Kd [4] was 0.0569 nM.
